Laboratory results taken from US20250129169A1 (Stanford University, published 2025).

Key:
human IFNAR2 ECD = target: T1, human IFNAR2 ECD (human, UniProt P48551 27-243); assay: SPR; human IFNAR2 ECD immobilized, VHH as analyte; binding constants from kinetic fits
T1 construct: extracellular domain; Immobilized for SPR under the same conditions as for the IL-2 specific VHHs
T1 sequence (looked up): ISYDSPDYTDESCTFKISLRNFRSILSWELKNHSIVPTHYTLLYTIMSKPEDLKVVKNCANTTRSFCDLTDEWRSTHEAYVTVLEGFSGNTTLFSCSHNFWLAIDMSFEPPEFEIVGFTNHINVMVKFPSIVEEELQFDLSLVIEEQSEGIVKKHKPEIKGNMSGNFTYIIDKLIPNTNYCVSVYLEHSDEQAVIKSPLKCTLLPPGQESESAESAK
Description: FIGS. 8A-8D depict signaling kinetics and gene expression driven by Type I Interferon surrogate ligands. (A) SPR sensorgrams displaying dose-dependent binding of IFNAR2 VHHs to immobilized human IFNAR2 ECD. SPR experiments were performed using the same conditions as for IL-2 specific VHHs. Binding constants were determined from kinetic fitting and summarized in (B). (C) qRT-PCR analysis of mRNA level of indicated genes in human primary bronchial/tracheal epithelial cells treated with 10 nM surrogate ligands or IFNω for 8 hr. (D) qRT-PCR analysis of mRNA level of indicated genes in PBMCs treated with 10 nM surrogate ligands or IFNω for 8 hr.

Human IL-2Rβ ECD [1] = target: T2, Human IL-2Rβ ECD (human, UniProt P14784 27-240, biotinylated (site not stated)); assay: SPR, steady-state binding affinity (drawn table)
T2 construct: extracellular domain; Biotinylated and held on a streptavidin chip for SPR; also called biotinylated human IL-2Rβ ECD
T2 sequence (looked up): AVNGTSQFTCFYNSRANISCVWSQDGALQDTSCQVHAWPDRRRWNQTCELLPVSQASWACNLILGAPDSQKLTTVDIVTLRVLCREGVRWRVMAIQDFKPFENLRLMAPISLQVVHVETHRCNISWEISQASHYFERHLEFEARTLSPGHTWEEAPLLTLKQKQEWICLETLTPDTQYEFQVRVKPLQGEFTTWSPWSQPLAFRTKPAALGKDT
Description: (§1) FIGS. 2A-2H show data on SPR validation of IL-2Rβ- and γc-VHHs and agonist screening in YT-1 cells. (A) Biotinylated human IL-2Rβ ECD was immobilized on a streptavidin (SA) sensor chip, and varying concentrations of IL-2Rβ VHH were applied to determine binding parameters using SPR. Sensorgrams are shown on the left, and steady state binding is plotted on the right. Binding affinities (KD) were determined by fitting to steady state response values. (B) Biotinylated human γC ECD was immobilized on a SA chip, and varying concentrations of γc VHH were flowed over the chip to determine binding. […] (C) Steady-state binding affinities between VHH/scFv and IL-2R, as determined by SPR. Values for scFv affinities are derived from patent US20160367664A1 (Wang et al., 2016). (D) Table of pSTAT5 Eₘₐₓ values for the indicated VHH pairings. (E) Tuning IL-2 activity via generation of acid-base VHH zipper pairings. (F) Tuning IL-2 activity via generation of 2:1 β:γc or γc:β stoichiometries. VHH binding modules are linked together in a tripartite (β-γc-β or γc-β-γc) manner. Graph axes are represented as in (E). (G) Dose-response relationship of pSTAT5 geometric mean flurorescence intensities (gMFI) of selected agonists. (H) Corresponding histograms showing STAT5 activity in YT-1 cells treated with human IL-2 vs. IL-2 surrogate agonists at saturating concentration.

Human IL-2Rβ ECD [2] = target: T2, Human IL-2Rβ ECD; assay: SPR; biotinylated human IL-2Rβ ECD on streptavidin chip, VHH as analyte; KD from fit to steady-state responses [Cont.]
Description: as §1

human IL-10Rβ ECD = target: T3, human IL-10Rβ ECD (human, UniProt Q08334 20-220); assay: SPR, kinetic fit, immobilized human IL-10Rβ ECD
T3 construct: extracellular domain; Immobilized for SPR under the same conditions as for the IL-2 specific VHHs
T3 sequence (looked up): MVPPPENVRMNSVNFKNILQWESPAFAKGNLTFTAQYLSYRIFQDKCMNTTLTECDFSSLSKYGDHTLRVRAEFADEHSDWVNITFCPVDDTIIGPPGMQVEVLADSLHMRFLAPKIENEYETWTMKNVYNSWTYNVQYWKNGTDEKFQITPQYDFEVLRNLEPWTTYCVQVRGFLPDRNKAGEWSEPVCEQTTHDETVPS
Description: (A) SPR sensorgrams displaying dose-dependent binding of IL-10Rβ VHHs to immobilized human IL-10Rβ ECD. SPR experiments were performed using the same conditions as for IL-2 specific VHHs. Binding constants were determined from kinetic fitting and summarized in (B).

[3] = target: IL-2Rβ/γc receptor heterodimer on cells (human) (UniProt P14784); assay: cell-based or functional assay
Chain of IL-2Rβ/γc receptor heterodimer on cells (human) (P31785 23-369, one chain of several): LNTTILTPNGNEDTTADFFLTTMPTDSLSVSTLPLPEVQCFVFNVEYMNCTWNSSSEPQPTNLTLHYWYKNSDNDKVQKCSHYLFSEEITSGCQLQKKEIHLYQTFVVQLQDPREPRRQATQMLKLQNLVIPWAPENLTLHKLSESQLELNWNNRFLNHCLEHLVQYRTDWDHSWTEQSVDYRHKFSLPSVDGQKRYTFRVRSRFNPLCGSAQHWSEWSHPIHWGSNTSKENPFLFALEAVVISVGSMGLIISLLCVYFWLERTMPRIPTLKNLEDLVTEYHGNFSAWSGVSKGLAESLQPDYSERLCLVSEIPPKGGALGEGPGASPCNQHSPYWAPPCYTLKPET

B1: IFNAR2-VHH2 (VHH)
VHH: QVQLQESGGGLVQPGGSLRLSCAASGFTFSDYIMTWVRQAPGKGLEWVSSINNGGRSTYYADSVKGRFTISRDNAKNTLYLQLNSLKIEDTAMYYCARDVTCWGARTGCRVSGGTQVTVSS
notes: Member of the group m12 (IFNAR2 VHHs); also called VHH2 (IFNAR2 VHH)
In the case of B1, the Kd (human IFNAR2 ECD) is reported as 0.78 nM.

B2: 2Rβ-VHH6 (VHH)
VHH: QVQLQESGGGSVQAGGSLRLSCAASSYTISSVCMGWFRQAPGKEREGVAGIAPDGSTGYGDSVKGRFTISKDNAKNTLYLQMNSLKPEDTAMYYCAAASPGRCFLPRTALEPALYYNWGQGTQVTVSS
notes: also called IL-2Rβ-VHH6
With B2 the Kd (Human IL-2Rβ ECD [1]) was 25 nM and the Kd (Human IL-2Rβ ECD [2]) was 25 nM.

B3: 10Rβ-VHH4 (VHH)
VHH: QVQLQESGGGSVQAGGSLRLSCAASGYTYSSYCMGWFRQASGKEREGVATIDSDGSTRYADSVKGRFTISKDNAKNTLYLQMNSLKPEDTAMYYCAADLADCAPSIYSDYDVAHWGQGTQVTVSS
notes: member of the group m13; also called VHH4 (IL-10Rβ VHH)
B3 was tested, and the Kd (human IL-10Rβ ECD) was 2.2 nM.

B4: IFNAR2-VHH3 (VHH)
VHH: QVQLQESGGGLVQPGGSLRLSCAASEFTFSEYSMKWVRQPPGKGLEWVSTISPSGGTTRYAESVKGRFTISRDNAKNTLYLQLNSLKTEDTAMYYCSVADWSVTQRRGQGTQVTVSS
notes: Member of the group m12 (IFNAR2 VHHs); also called VHH3 (IFNAR2 VHH)
In the case of B4, the Kd (human IFNAR2 ECD) is reported as 0.21 nM.

B5: 10Rβ-VHH3 (VHH)
VHH: QVQLQESGGGSVQVGGSLRLSCAASGYTYSNYCMGWFRQAPGKEREGVATIDGDGSTRYADSVKGRFTISKDNAKNTLYLQMHSLKPEDTAMYYCAADFALCDPTVVAHTDFGYWGQGTQVTVSS
notes: member of the group m13; also called VHH3 (IL-10Rβ VHH)
Work on B5 yielded a Kd (human IL-10Rβ ECD) of 2.5 nM.

B6: IFNAR2-VHH8 (VHH)
VHH: QVQLQESGGGSVQAGGSLRLSCAASGFYGTYSMGWFRQAPGKEREGVAHIESDGSTRYADSMKGRFTVSKDNAKKILYLQMNSLKPEDTAVYYCAADPRPYFRTWYERARYGGQGTQVTVSS
notes: Member of the group m12 (IFNAR2 VHHs); also called VHH8 (IFNAR2 VHH)
Binder B6 has a Kd (human IFNAR2 ECD) of 0.54 nM.

B7: 10Rβ-VHH1 (VHH)
VHH: QVQLQESGGGSVQAGGSLRLSCAARYTYSTYCMGWFRQAPGKEREGVAAIDSDGSTSYADSVKGRFTISKDNAKNTLYLQMNSLKPEDTAMYYCASDADCDLGGSWSTRGQGTQVTVSS
notes: member of the group m13; also called VHH1 (IL-10Rβ VHH)
B7 was tested, and the Kd (human IL-10Rβ ECD) was 1.6 nM.

B8: 2Rβ-VHH4 (VHH)
VHH: QVQLQESGGGSVQAGGSLRLSCAASGSTSCSSVMRWYRQAPGKEREFVSSINSDRRTVYADSVKGRFTISQDNAKSTLYLQMNSLKAEDTATYYCQRELYGDSWCQGNYWGQGTQVTVSS
For B8, the Kd (Human IL-2Rβ ECD [1]) was 123 nM and the Kd (Human IL-2Rβ ECD [2]) was 123 nM.

B9: 10Rβ-VHH2 (VHH)
VHH: QVQLQESGGGSVQTGGSLRLSCAASQVNMNSVGWFRQAPGKAREGVATISPSGGATYYTDSVKGRFTISRDNAKNTVYLQMNSLNAEDTAMYYCAADGGRDWWLLRPQTFSYWGQGTQVTVSS
notes: member of the group m13; also called VHH2 (IL-10Rβ VHH)
With B9 the Kd (human IL-10Rβ ECD) was 2.2 nM.

B10: MY193-R (bispecific antibody, not shown: small tags and cut ends)
chain: QVQLQESGPGLVKPSETLSLTCTVSGGSISSSSYYWGWIRQPPGKGLEWIGSIYYSGSTYYNPSLKSRVTISVDTSKNQFSLKLSSVTAADTAVYYCAGDILTGYALDYWGQGTLVTVSSGGGGSGGGGSGGGGSSYELTQPPSMSVSPGQTARITCSGDALPKQFAFWYQQKPGQAPVLVIYKDTERPSGIPERFSGSSSGTTVTLTITGVQAEDEADYYCQSPDSSGTVEVFGGGTKLTVLGGGGTSASQVQLQESGGGSVQAGGSLRLSCTASGFTFDDEDMGWYRQAPGNECELVSSIGSLGRRYYADSVKDRFAISQDNAKNTVYLQMNSLKPEDTAVYYCAATKGGSWLDSILASCQGAFGYWGQGTQVTVSS
Binder B10 has a pSTAT1/3 activity in NK cells, relative to hIL-2 [3] of 3%, a pSTAT1 or pSTAT3 activity in CD8+ T cells, relative to hIL-2 [3] of 25% and a pSTAT5 activity in CD8+ T cells, relative to hIL-2 [3] of 90%. The pSTAT5 activity in NK cells, relative to hIL-2 [3] was 45%.

B11: IFNAR2-VHH1 (VHH)
VHH: QVQLQESGGGSVQPGGSLRLSCAASGFTFSNYIMSWVRQAPGKGLEWVSAISGGGNTYYTDSVKGRFTISRDNAKNTLYLQLNSLKTEDTAMYYCAQNWWVAGRSPNPPGQGTQVTVSS
notes: Member of the group m12 (IFNAR2 VHHs); also called VHH1 (IFNAR2 VHH)
Binder B11 has a Kd (human IFNAR2 ECD) of 0.31 nM.

B12: 2Rβ-VHH1 (VHH)
VHH: QVQLQESGGGSVQAGGSLRLSCVTSGYTYSSANMAWFRQAPGKEREGVAIITPSGRATTYADSVKGRFTISRDNAANTLYLQMNSLKPEDTAMYYCAADTPPYSGLWYAERTYNYWGQGTQVTVSS
notes: also called IL-2Rβ-specific VHH clone 1
In the case of B12, the Kd (Human IL-2Rβ ECD [1]) is reported as 11 nM and the Kd (Human IL-2Rβ ECD [2]) is reported as 10.9 nM.

B13: MY173-F (bispecific antibody, not shown: small tags and cut ends)
chain: QVQLQESGGGSVQAGGSLRLSCAASSYTISSVCMGWFRQAPGKEREGVAGIAPDGSTGYGDSVKGRFTISKDNAKNTLYLQMNSLKPEDTAMYYCAAASPGRCFLPRTALEPALYYNWGQGTQVTVSSSFQVQLQESGGGSVQAGGSLRLSCAASGYTYRDYYMGWFRQAPGREREGVASIYTRGSREGSTRYSSSVEGRFTITLDTAKNTLYLQMNSLKPEDTAMYYCAADDRTWLPRVQLGGPRENEYNYWGQGTQVTVSS
With B13 the pS6 activity in CD8+ T and NK cells, relative to IL-2 [3] was 50% and the pSTAT5 activity in CD8+ T and NK cells, relative to IL-2 [3] was 70 to 100%.

B14: IFNAR2-VHH5 (VHH)
VHH: QVQLQESGGGLVQPGGSLTLSCAASGFTFRNHIMSWVRQAPGKGLEWVSAISSGGGNTYYADSVKGRFTISRDNAKSTLYLQLNSLKTEDTAMYYCTKDWARPPYSDFLAPQAQGTQVTVSS
notes: Member of the group m12 (IFNAR2 VHHs); also called VHH5 (IFNAR2 VHH)
B14 was tested, and the Kd (human IFNAR2 ECD) was 0.23 nM.

B15: 10Rβ-VHH5 (VHH)
VHH: QVQLQESGGGSVQAGGSLRLSCAASGYTYSSYCMGWFRQAPGKEREGVAAIDSDGSTSYADSVKGRFTISKDNAKNTLYLQMNSLKPEDTAMYYCAAEPWCTSQGRGRESAEFGYWGQGTQVTVSS
notes: member of the group m13; also called VHH5 (IL-10Rβ VHH)
Work on B15 yielded a Kd (human IL-10Rβ ECD) of 1.7 nM.

B16: 2Rβ-VHH3 (VHH)
VHH: QVQLQESGGGSVQAGGSLRLSCTASGFTFDDEDMGWYRQAPGNECELVSSIGSLGRRYYADSVKDRFAISQDNAKNTVYLQMNSLKPEDTAVYYCAATKGGSWLDSILASCQGAFGYWGQGTQVTVSS
In the case of B16, the Kd (Human IL-2Rβ ECD [1]) is reported as 20 nM and the Kd (Human IL-2Rβ ECD [2]) is reported as 20.2 nM.

B17: IFNAR2-VHH10 (VHH)
VHH: QVQLQESGGGLVQPGGSLRLSCAASGFTFSNHIMSWVRQAPGKGLEWVSAINSGGGSTYYRDSVKGRFTISRDNAKNTLYLQLNSLKTEDTAMYYCAKDWWRYGSDKPPGQGTQVTVSS
notes: Member of the group m12 (IFNAR2 VHHs); also called VHH10 (IFNAR2 VHH)
B17 showed a Kd (human IFNAR2 ECD) of 0.33 nM.
